Test results reported in patent US20220119513A1 (ZOETIS SERVICES, published 2022).
Where two headings read alike, the source gives them in different places.

T1: TGFβ3 (R&D Systems) (Homo sapiens (Human), UniProt P10600 301-412, Active TGFβ3 is a disulfide-linked homodimer of this chain; one copy is given.)
T1 construct: also called TGFB3
T1 sequence: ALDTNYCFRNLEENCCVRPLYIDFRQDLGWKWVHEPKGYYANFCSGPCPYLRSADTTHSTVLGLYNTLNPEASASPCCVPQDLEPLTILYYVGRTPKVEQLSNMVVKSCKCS

T2: TGFβ2 (R&D Systems)
T2 sequence (P61812 303-414, species assumed, looked up): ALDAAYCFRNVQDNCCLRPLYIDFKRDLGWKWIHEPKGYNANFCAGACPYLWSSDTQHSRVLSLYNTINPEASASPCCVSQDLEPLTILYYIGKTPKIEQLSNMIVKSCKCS

T3: canine TGFβ2 (canine, UniProt A0A8I3PZZ6 331-442)
T3 sequence: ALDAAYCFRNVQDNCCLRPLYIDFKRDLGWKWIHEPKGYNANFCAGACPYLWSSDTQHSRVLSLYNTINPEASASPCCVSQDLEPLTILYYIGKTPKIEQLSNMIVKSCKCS

T4: canine TGFβ3 (canine, UniProt A0A8I3S1P1 346-457)
T4 sequence: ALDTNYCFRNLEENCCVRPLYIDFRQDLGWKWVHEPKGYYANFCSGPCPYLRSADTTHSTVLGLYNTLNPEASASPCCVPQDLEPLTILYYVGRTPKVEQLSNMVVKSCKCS


How the values were obtained:
[1] = target: TGFβ1 (R&D Systems); assay: cell-based or functional assay
[2] = target: T1, TGFβ3 (R&D Systems); assay: SPR
[3] = target: T1, TGFβ3 (R&D Systems); assay: cell-based or functional assay
[4] = target: T2, TGFβ2 (R&D Systems); assay: cell-based or functional assay
[5] = target: TGFβ1 (R&D Systems); assay: cell-based or functional assay; remark: listed apart in the source
[6] = target: T1, TGFβ3 (R&D Systems); assay: SPR full titration
[7] = target: T2, TGFβ2 (R&D Systems); assay: SPR full titration
[8] = target: T5, TGFβ1 (R&D Systems); assay: SPR full titration
T5 construct: also called TGFB1

[9] = target: T1, TGFβ3 (R&D Systems); assay: SPR, TGFβ on chip
Text: (§1) To avoid affinity differences associated with differential surface preparation that can occur when immobilizing antibodies to surfaces, TGFβ1, TGFβ2, and TGFβ3 (R&D Systems) were directly conjugated to the individual surface. Immobilization was obtained by amine coupling […] using N-hydroxysuccinimide (NHS)/1-Ethyl-3-(3-dimethylaminopropyl) carbodiimide (EDC) chemistry. Chips were quenched with ethanolamine and the affinity with which all candidate mAbs bound to the immobilized TGFβ was evaluated. All curves were fit to a 1:1 model. Affinities <10⁻¹¹ are below the lower limit of quantitation of detection for the instrument.

[10] = target: T2, TGFβ2 (R&D Systems); assay: SPR, TGFβ on chip
Text: as §1

[11] = target: T5, TGFβ1 (R&D Systems); assay: SPR, TGFβ on chip
Text: as §1

[12] = target: T1, TGFβ3 (R&D Systems); assay: cell-based or functional assay; remark: listed apart in the source
[13] = target: T5, TGFβ1 (R&D Systems); assay: cell-based or functional assay; remark: listed apart in the source
[14] = target: canine TGFβ1 (canine, UniProt P54831 279-390, limits assumed); assay: SPR, TGFβ on chip
Text: as §1

[15] = target: T3, canine TGFβ2; assay: SPR
[16] = target: T4, canine TGFβ3; assay: SPR

T5 sequence (P01137 279-390): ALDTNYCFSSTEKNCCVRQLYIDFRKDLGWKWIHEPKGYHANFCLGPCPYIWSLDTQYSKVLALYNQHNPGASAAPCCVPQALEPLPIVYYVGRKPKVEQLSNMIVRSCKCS
Sequence of canine TGFβ1 (P54831 279-390 limits assumed): as the sequence (P01137 279-390) above

Row | Binder | CMVIC pSmad-3, IC50 [1] [nM] | binding result [2] | Kd [14] [nM] | binding result [15] | binding result [16] | further results
1 | fel-TGFβ1-Spec (antibody, also called FelSL501-VH3-9/FelSL501-VL1-1) heavy: DVQLVESGGDLVKPGGSLRLTCVASGFTFSSYGMHWVRQAPGKELEWVAVISYDGSIKYYADAVKGRFTISRDNAKNTLYLQMNSLKTEDTATYYCARTGEYSGYDTDPQYSWGQGTTVTVSSASTTAPSVFPLAPSCGTTSGATVALACLVLGYFPEPVTVSWNSGALTSGVHTFPAVLQASGLYSLSSMVTVPSSRWLSDTFTCNVAHPPSNTKVDKTVRKTDHPPGPKPCDCPKCPPPEAAGAPSIFIFPPKPKDTLSISRTPEVTCLVVDLGPDDSDVQITWFVDNTQVYTAKTSPREEQFNSTYRVVSVLPILHQDWLKGKEFKCKVNSKSLPSPIERTISKAKGQPHEPQVYVLPPAQEELSRNKVSVTCLIKSFHPPDIAVEWEITGQPEPENNYRTTPPQLDSDGTYFVYSKLSVDRSHWQRGNTYTCSVSHEALHSHHTQKSLTQSPGK light: EIQMTQSPSSLSASPGDRVTITCRASQGIGDDLGWYQQKPGKVPKLLIYGTSTLQSGVPSRFSGSGSGTDFTLTISSLEPEDAATYYCLQDSNYPLTFGGGTKRSDAQPSVFLFQPSLDELHTGSASIVCILNDFYPKEVNVKWKVDGVVQNKGIQESTTEQNSKDSTYSLSSTLTMSSTEYQSHEKFSCEVTHKSLASTLVKSFQRSECQRE | 9.03 | no binding | – | – | – | –
2 | felHclb 1-1WMN (antibody, V domains shown) VH: QVLLVQSGAEVRTPGASVKIFCKASGYIFITYWMNWVRQSPAQGLEWMGSIFPASGSTSYAQKFQGRLTLTADTSTNTAYMELSSLRSADTAMYYCARGDGNYALDAMDYWGQGTSVTVSS VL: EIQMTQSPSSLSASPGDRVTITCRASESVDSYGNSFMHWYQQKPGKVPKLLIYLASNLESGVPSRFSGSGSGTDFTLTISSLEPEDAATYYCQQNNEDPLTFGAGT | – | – | – | – | – | CMVIC pSmad-3, IC50 [3]: 10.1 nM; CMVIC pSmad-3, IC50 [4]: 121 nM; CMVIC pSmad-3, IC50 [5]: 69.7 nM
3 | felHclb 1-1xWMN (antibody, V domains shown) VH: QVLLVQSGAEVRTPGASVKIFCKASGYIFITYWMNWVRQSPAQGLEWMGQIFPASGSTNYNEMFEGRLTLTADTSTNTAYMELSSLRSADTAMYYCARGDGNYALDAMDYWGQGTSVTVSS VL: EIQMTQSPSSLSASPGDRVTITCRASESVDSYGNSFMHWYQQKPGKVPKLLIYLASNLESGVPSRFSGSGSGTDFTLTISSLEPEDAATYYCQQNNEDPLTFGAGT | – | – | – | – | – | CMVIC pSmad-3, IC50 [3]: 0.53 nM; CMVIC pSmad-3, IC50 [4]: 1.99 nM; CMVIC pSmad-3, IC50 [5]: 0.35 nM
4 | H2chimK (antibody, also called canHcLb-VH2/chiHcLb-VL) heavy: EVQLVQSAAEVKKPGASVKVSCKTSGYSFTTYWMNWVQQAPGKGLDWMGQIFPASGSTNYNEMFEGRVTLTVDTSTSTAYMELSSLRAEDAAVYYCARGDGNYALDAMDYWGQGTLVTASTTAPSVFPLAPSCGSTSGSTVALACLVSGYFPEPVTVSWNSGSLTSGVHTFPSVLQSSGLYSLSSMVTVPSSRWPSETFTCNVAHPASKTKVDKPVPKRENGRVPRPPDCPKCPAPEAAGAPSVFIFPPKPKDTLLIARTPEVTCVVVDLDPEDPEVQISWFVDGKQMQTAKTQPREEQFNGTYRVVSVLPIGHQDWLKGKQFTCKVNNKALPSPIERTISKARGQAHQPSVYVLPPSREELSKNTVSLTCLIKDFFPPDIDVEWQSNGQQEPESKYRTTPPQLDEDGSYFLYSKLSVDKSRWQRGDTFICAVMHEALHNHYTQESLSHSPGK light: DIVLTQTPASLAVSLGQRATISCRASESVDSYGNSFMHWYQQKSGQPPKLLIYLASNLESGVPARFSGSGSRTDFTLTIDPVEADDAATYYCQQNNEDPLTFGAGTKRNDAQPAVYLFQPSPDQLHTGSASVVCLLNSFYPKDINVKWKVDGVIQDTGIQESVTEQDKDSTYSLSSTLTMSSTEYLSHELYSCEITHKSLPSTLIKSFQRSEC | – | – | – | – | – | Kd [6]: 2.26 nM; Kd [7]: 6.62 nM; Kd [8]: 16.3 nM
5 | chi04H09 (mouse-dog) (antibody, V domains shown, also called mouse:canine 04H09 chimera) VH: QVQLQQSGAELVKPGASVKISCKASGYAFSSSWMNWVKQRPGKGLEWIGQIYPGDGDTNYNGKFKGKATLTADKSSSTAYMQLSSLTSEDSAVYFCARHYDGSTDYWGQGTTLTVSS VL: DIQMTQSPASLSVSVGETVTITCRASENIYSNLAWYQQKQGKSPQLLVYAATNLADGVPSRFSGSGSGTQYSLKINSLQSEDFGSYYCQHFWGTPYTFGGGTKLEIKR | – | – | – | – | – | Kd [9]: 4.64 nM; Kd [10]: 27.7 nM; Kd [11]: 4.01 nM; CMVIC pSmad-3, IC50 [12]: 66.5 nM; CMVIC pSmad-3, IC50 [13]: 3.5 nM
6 | Can04H09 VH3/VL1 (antibody, V domains shown) VH: EVQLVQSAAEVKKPGASVKVSCKTSGYTFTSSWMNWVQQAPGAGLDWMGQIYPGDGDTNYNGKFKGRVTLTADTSTSTAYMELSSLRAEDTAVYYCARHYDGSTDYWGQGTLVTVSS VL: DIVMTQNPLSLSVSPGETASISCRASENIYSNLAWFRQKPGQSPQRLIYAATNLADGVPDRFSGSGSGTDFTLRISRVEADDTGVYYCQHFWGTPYTFGQGTK | – | – | 3980 | no binding | no binding | –
7 | Can04H09 VH2/VL1 (antibody, V domains shown) VH: EVQLVQSAAEVKKPGASVKVSCKTSGYSFTSSWMNWVQQAPGKGLDWMGQIYPGDGDTNYNGKFKGRVTLTADKSTSTAYMELSSLRSEDAAVYYCARHYDGSTDYWGQGTLVTVSS VL: DIVMTQNPLSLSVSPGETASISCRASENIYSNLAWFRQKPGQSPQRLIYAATNLADGVPDRFSGSGSGTDFTLRISRVEADDTGVYYCQHFWGTPYTFGQGTK | – | – | 2190 | no binding | no binding | –
8 | Can04H09 VH1/VL1 (antibody, V domains shown) VH: EVQLVQSGAEVKKPGASVKVSCKTSGYTFISSWMNWVRQAPGAGLDWMGQIYPGDGDTNYNGKFKGRVTLTADTSTSTAYMELSSLRAGDIAVYYCARHYDGSTDYWGQGTLVTVSS VL: DIVMTQNPLSLSVSPGETASISCRASENIYSNLAWFRQKPGQSPQRLIYAATNLADGVPDRFSGSGSGTDFTLRISRVEADDTGVYYCQHFWGTPYTFGQGTK | – | – | 284 | no binding | no binding | –

Now from value to binder, other results behind:

Row | CMVIC pSmad-3, IC50 [1] [nM] | binding result [2] | Kd [14] [nM] | binding result [15] | binding result [16] | Binder | further results
9 | 30.1 | no binding | – | – | – | fel-TGFβ1_hetero-chimera-1 (antibody) heavy: DVQLVESGGDLVKPGGSLRLTCVASGFTFSSYGMHWVRQAPGKELEWVAVISYDGSIKYYADAVKGRFTISRDNAKNTLYLQMNSLKTEDTATYYCARTGEYSGYDTDPQYSWGQGTTVTVSSASTTAPSVFPLAPSCGTTSGATVALACLVLGYFPEPVTVSWNSGALTSGVHTFPAVLQASGLYSLSSMVTVPSSRWLSDTFTCNVAHPPSNTKVDKTVRKTDHPPGPKPCDCPKCPPPEAAGAPSIFIFPPKPKDTLSISRTPEVTCLVVDLGPDDSDVQITWFVDNTQVYTAKTSPREEQFNSTYRVVSVLPILHQDWLKGKEFKCKVNSKSLPSPIERTISKAKGQPHEPQVYVLPPAQEELSRNKVSVTCLIKSFHPPDIAVEWEITGQPEPENNYRTTPPQLDSDGTYFVYSKLSVDRSHWQRGNTYTCSVSHEALHSHHTQKSLTQSPGK light: EIVLTQSPSSLSASVGDRVTITCRASQGIGDDLGWYQQKPGKAPILLIYGTSTLQSGVPSRFSGSGSGTDFTLTINSLQPEDFATYYCLQDSNYPLTFGGGTKRSDAQPSVFLFQPSLDELHTGSASIVCILNDFYPKEVNVKWKVDGVVQNKGIQESTTEQNSKDSTYSLSSTLTMSSTEYQSHEKFSCEVTHKSLASTLVKSFQRSECQRE | –
10 | 11.9 | no binding | – | – | – | fel-TGFβ1_hetero-chimera-2 (antibody) heavy: EVQLVESGGGVVQPGRSLRLSCAASGFTFSSYGMHWVRQAPGKELEWVAVISYDGSIKYYADSVKGRFTISRDNSKNTLYLQMNSLRAEDTAVYYCARTGEYSGYDTDPQYSWGQGTTVTVSSASTTAPSVFPLAPSCGTTSGATVALACLVLGYFPEPVTVSWNSGALTSGVHTFPAVLQASGLYSLSSMVTVPSSRWLSDTFTCNVAHPPSNTKVDKTVRKTDHPPGPKPCDCPKCPPPEAAGAPSIFIFPPKPKDTLSISRTPEVTCLVVDLGPDDSDVQITWFVDNTQVYTAKTSPREEQFNSTYRVVSVLPILHQDWLKGKEFKCKVNSKSLPSPIERTISKAKGQPHEPQVYVLPPAQEELSRNKVSVTCLIKSFHPPDIAVEWEITGQPEPENNYRTTPPQLDSDGTYFVYSKLSVDRSHWQRGNTYTCSVSHEALHSHHTQKSLTQSPGK light: EIQMTQSPSSLSASPGDRVTITCRASQGIGDDLGWYQQKPGKVPKLLIYGTSTLQSGVPSRFSGSGSGTDFTLTISSLEPEDAATYYCLQDSNYPLTFGGGTKRSDAQPSVFLFQPSLDELHTGSASIVCILNDFYPKEVNVKWKVDGVVQNKGIQESTTEQNSKDSTYSLSSTLTMSSTEYQSHEKFSCEVTHKSLASTLVKSFQRSECQRE | –
